Results as given in patent US8563695B2, “Antibodies that bind β2” (Genentech, Inc., priority 2007, dated 2013).

Key:
SW620 cells [1] = assay: Chemical inhibition of Notch signaling: E-cadherin staining of β2 ECD-treated SW620 cells; type: cell-based, human
Experimental: Vimentin and actin cytoskeleton (rhodamine-phalloidin): cells were fixed in 4% paraformaldehyde for 20 minutes at room temperature and permeabilzed with 0.05% saponin for 5 minutes at room temperature. For β2, REST, cleaved-Notch1 NICD and E-cadherin staining: cells were fixed in methanol at 4° C. for 2 minutes. Primary antibody incubation was at room temperature for 1 hour (for vimentin staining), or for 15 minutes (for rhodamine-phalloidin staining) or at 37° C. for 1 hour (for β2, REST, cleaved-Notch1 NICD and E-cadherin staining). Secondary antibody incubation was at room temperature for 30 minutes. […]
Images were converted from Photoshop format to Tif in Photoshop CS2 (version 9.0.2, Adobe; San Jose, Calif.). […] Typically, 5 independent regions were analyzed and combined for each analysis.
Activation of Notch signaling requires cleavage of the receptor by both an ADAM protease and gamma-secretase to release the Notch intracellular domain (NICD). […] SW620 cells were mixed with DMSO (vehicle control) or the specific gamma-secretase inhibitor DAPT (N—[N-(3,5-difluorophenylacetyl-L-alanine)]-S-phenylglycine t-butylester) at 500 nM in DMSO, treated with β2 ECD in conditioned media, and analyzed for loss of E-cadherin. […]

SW620 cells [2] = assay: Stimulation of SW620 cells with Notch ligands (co-culture or plate-bound) for EMT induction; type: cell-based, human; conditions: exogenous ligand in trans by co-culture or plate-bound; data not shown
[3] = system: Twist1 and HES1 transcript; assay: Transcript expression (microarray, RT-PCR) in SW620 cells treated with β2 ECD; type: cell-based, human
Experimental: HES1 and Twist1 transcript expression from 0-72 hours in SW620 cells treated β2 ECD in conditioned medium. RNA was extracted from cells at 0, 6, 18, 24, 48, and 72 hour timepoints and microarray analysis performed on Agilent Whole Human Genome microarrays versus a universal reference RNA. Log ratio (Y-axis) is plotted against time in hours (X-axis). Transcript data for 2 independent HES1 oligonucleotide probe sequences and for Twist1 are shown.
RT-PCR analysis of Twist1 transcript expression at 0, 6, and 18 hr timepoints in SW620 cells treated with β2 ECD. Twist1 expression was normalized to housekeeping gene RPL19.

SW620 cells [4] = assay: E-cadherin and vimentin staining of SW620 cells treated with β2 ECD; type: cell-based, human
Experimental: (§1) Vimentin and actin cytoskeleton (rhodamine-phalloidin): cells were fixed in 4% paraformaldehyde for 20 minutes at room temperature and permeabilzed with 0.05% saponin for 5 minutes at room temperature. For β2, REST, cleaved-Notch1 NICD and E-cadherin staining: cells were fixed in methanol at 4° C. for 2 minutes. Primary antibody incubation was at room temperature for 1 hour (for vimentin staining), or for 15 minutes (for rhodamine-phalloidin staining) or at 37° C. for 1 hour (for β2, REST, cleaved-Notch1 NICD and E-cadherin staining). Secondary antibody incubation was at room temperature for 30 minutes. Antibodies used were as following: α-ankyrin monoclonal antibody (Chemincon International, Temecula, Calif.); α-vimentin monoclonal antibody (Sigma-Aldrich, St. Louis, Mo.); rhodamine-phalloidin (Molecular Probes, Eugene, Oreg.), α-REST polyclonal antibody (Upstate, Lake Placid, N.Y.), α-E-cadherin monoclonal antibody (Invitrogen, Carlsbad, Calif.), α-Notch1 (Val1744 peptide, detects both intact and cleaved Notch1 NICD) (Cell Signaling, Danvers, Mass.) or α-β2 monoclonal antibody (Genentech, Inc.). Secondary antibodies were as follows: Cy3-conjugated rabbit α-mouse IgG or Cy3-conjugated donkey α-rabbit IgG (Jackson Lab, Bar Harbor, Me.). Slides were mounted with Vectashield mounting media with DAPI (4′,6-diamidino-2-phenylindole) (Vector Lab, Burlingame, Calif.). […]

SW620 cells [5] = assay: Migration assay of SW620 cells treated with β2 ECD; type: cell-based, human; conditions: β2 ECD in conditioned media, 0.1% FBS, 18 hours; p=0.0009
Experimental: Migration assays were performed using the HTS FluoroBlock Multiwell insert system with […] (BD Biosciences, Bedford, Mass.). 10^5 cells/well were seeded into the upper wells and FBS was added to the bottom wells. After 18 hr, cells that migrated to the other side of the trans-well membrane were stained in 10 um YO-PRO-1 iodide (Invitrogen, Eugene, Oreg.) and quantitated using the fluorescence plate reader Spectra Max GeminiEM (Molecular Devices, Sunnyvale, Calif.).

Notch1 NICD = assay: Translocation of Notch1 NICD to nucleus (confocal immunofluorescence); type: cell-based, human; conditions: SW620 cells 6 hours after treatment with β2 ECD in conditioned media; 100 um Lactacystin
Experimental: as §1, with “Inc.).” for “Inc.). Secondary antibodies were as follows: Cy3-conjugated rabbit α-mouse IgG or Cy3-conjugated donkey α-rabbit IgG (Jackson Lab, Bar Harbor, Me.). Slides were mounted with Vectashield mounting media with DAPI (4′,6-diamidino-2-phenylindole) (Vector Lab, Burlingame, Calif.).”
Activation of Notch1 by ligands results in cleavage to release the NICD, which translocates to the nucleus, and in concert with other proteins, directly regulates Notch target gene transcription. We analyzed whether nuclear NICD could be detected in cells in response to β2. […]

[6] = biological target: T1, Notch1 ECD (EGF repeats 6-36) (Homo sapiens, UniProt P46531); assay: Direct binding of β2 ECD and Notch1 ECD (Ni-NTA pull-down, immunoblot); conditions: approximately 1 nM Notch1 ECD and 20 nM β2 ECD; vs control conditioned media with irrelevant histidine-tagged protein
T1 construct: Notch1 ECD region containing the majority of the EGF repeat region (repeats 6-36); FLAG (C)
T1 sequence (P46531 218-1426 limits assumed): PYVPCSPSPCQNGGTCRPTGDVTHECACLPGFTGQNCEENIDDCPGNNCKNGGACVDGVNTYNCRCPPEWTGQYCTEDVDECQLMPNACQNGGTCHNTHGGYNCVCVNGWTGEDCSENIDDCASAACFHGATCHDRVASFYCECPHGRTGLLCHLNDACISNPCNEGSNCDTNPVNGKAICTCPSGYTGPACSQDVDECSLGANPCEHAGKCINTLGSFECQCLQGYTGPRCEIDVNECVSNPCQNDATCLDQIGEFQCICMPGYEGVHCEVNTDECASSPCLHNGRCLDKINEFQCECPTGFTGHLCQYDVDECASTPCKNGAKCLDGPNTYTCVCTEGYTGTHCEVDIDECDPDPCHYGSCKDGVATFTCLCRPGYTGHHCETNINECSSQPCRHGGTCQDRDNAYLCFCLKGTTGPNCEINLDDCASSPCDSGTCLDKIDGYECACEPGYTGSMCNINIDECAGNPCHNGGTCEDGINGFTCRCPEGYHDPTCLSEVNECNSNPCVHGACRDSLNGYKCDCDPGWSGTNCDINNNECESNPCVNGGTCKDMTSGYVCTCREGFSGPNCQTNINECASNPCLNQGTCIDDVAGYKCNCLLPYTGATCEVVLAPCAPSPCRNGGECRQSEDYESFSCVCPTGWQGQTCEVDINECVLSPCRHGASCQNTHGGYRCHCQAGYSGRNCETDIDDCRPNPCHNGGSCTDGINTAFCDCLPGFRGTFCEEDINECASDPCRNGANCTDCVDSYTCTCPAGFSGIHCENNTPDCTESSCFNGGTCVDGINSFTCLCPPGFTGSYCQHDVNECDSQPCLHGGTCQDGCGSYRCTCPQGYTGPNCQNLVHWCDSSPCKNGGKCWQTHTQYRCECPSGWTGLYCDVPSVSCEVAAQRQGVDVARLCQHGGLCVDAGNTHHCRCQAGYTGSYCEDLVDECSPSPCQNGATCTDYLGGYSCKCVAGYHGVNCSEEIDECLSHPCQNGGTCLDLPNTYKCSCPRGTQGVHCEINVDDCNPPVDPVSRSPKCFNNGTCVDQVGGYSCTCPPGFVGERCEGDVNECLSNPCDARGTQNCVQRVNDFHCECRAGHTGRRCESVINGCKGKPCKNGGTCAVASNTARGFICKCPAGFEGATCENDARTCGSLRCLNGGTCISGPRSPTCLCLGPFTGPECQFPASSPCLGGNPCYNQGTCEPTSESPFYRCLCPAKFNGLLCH
Experimental: Immunoprecipitation: cells were removed from culture plates using 5 mm EDTA and lysed in TBS buffer containing 0.5% NP-40, EDTA-free protease inhibitor (Roche Diagnostics, Indianapolis, Ind.) and 1 mm PMSF. The cell lysate was incubated with pre-saturated protein G-agarose (Roche Diagnostics, Indianapolis, Ind.) at 4° C. for 1.5 hour followed by incubation with α-β2 monoclonal antibody at 4° C. for 2 hours. This cell lysate and antibody mixture was then incubated with pre-saturated protein G-agarose at 4° C. overnight. The agarose was collected and proteins were eluted in Tris-Glycine gel loading buffer (Invitrogen, Carlsbad, Calif.) for immunoblot analysis. Direct binding: conditioned media was collected as described above, incubated with FLAG-tagged Notch1 ECD:6-36 (5 μg) in 15 ml for 2 hours at room temperature with shaking 50 μl of Ni-NTA agarose bead slurry (Qiagen) was added with incubation for 2 hours at room temperature with shaking. Ni-NTA beads were collected by centrifugation and washed 3 times with PBS. Alternatively, conditioned media was treated with Ni-NTA beads to enrich for β2 and the resulting slurry incubated with Notch1 ECD:6-36 (5 μg) in 1 ml PBS and incubated and washed as described. Samples were eluted into 2× loading buffer. […]

CHO cells = assay: Methotrexate resistance in CHO cells (trypan blue); type: cell-based, Chinese Hamster; conditions: 200 nM methotrexate for 48 hours; 60% of control-treated cells died; p=0.01
Experimental: Resistance to starvation: SW620 cells were seeded into 6 well plates at 25% confluence in complete media overnight. This media was replaced the next morning with media lacking FBS. For the assay, cells were detached using trypsin, washed, and stained in 0.4% Trypan Blue (Invitrogen, Carlsbad, Calif.). Total cells and dead cells were counted using a hemocytometer. Assays were performed in triplicate. Doxorubicin resistance: 2×10^4 SW620 cells were seeded in 96 well clear bottom black plates (Corning Inc., Corning, N.Y.) with serial dilutions of doxorubicin hydrochloride (Sigma-Aldrich, St. Louis, Mo.) and incubated for 5 days. Cell viability was measured by using Cell Titer Glo Luminescent Cell Viability Kit (Promega, Madison, Wis.). Luminescence was quantified using an Envision 2103 multilabel reader (PerkinElmer, Finland). Methotrexate resistance: 5×10^5 CHO cells were seeded in 6-well plates with β2 ECD in conditioned medium or control conditioned medium containing 200 nm methotrexate (Genentech Inc.). Cells were detached from the plate and stained with Trypan Blue 0.4% (Invitrogen, Carlsbad, Calif.) as described.

HEK293 cells = assay: β2 ECD induced phenotype assay in HEK293; type: cell-based; conditions: HEK293, do not express Notch1; FIG. 11A
Experimental: as §1

[7] = biological target: T2, Notch1 ECD fragment containing EGF repeats 22-33 (Homo sapiens, UniProt P46531); assay: Direct binding of β2 ECD and Notch1 ECD fragment EGF 22-33; conditions: α-FLAG immunoblot
T2 construct: purified fragments of the Notch1 ECD, containing either EGF repeats 10-21 or 22-33; FLAG (C)
T2 sequence (P46531 829-1305): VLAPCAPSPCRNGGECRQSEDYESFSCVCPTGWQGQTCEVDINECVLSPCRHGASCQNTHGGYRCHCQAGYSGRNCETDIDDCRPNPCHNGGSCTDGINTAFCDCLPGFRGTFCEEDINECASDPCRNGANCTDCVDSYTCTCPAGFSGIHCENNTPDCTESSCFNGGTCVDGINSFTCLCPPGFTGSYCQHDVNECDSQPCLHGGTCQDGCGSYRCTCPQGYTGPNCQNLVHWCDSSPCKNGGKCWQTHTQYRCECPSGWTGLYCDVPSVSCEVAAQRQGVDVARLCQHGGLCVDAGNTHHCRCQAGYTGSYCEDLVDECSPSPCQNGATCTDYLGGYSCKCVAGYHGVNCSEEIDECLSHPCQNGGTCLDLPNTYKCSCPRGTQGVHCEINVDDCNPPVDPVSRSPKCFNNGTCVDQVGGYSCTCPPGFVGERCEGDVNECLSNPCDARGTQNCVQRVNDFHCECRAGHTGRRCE

[8] = biological target: T3, Notch1 ECD fragment containing EGF repeats 10-21 (Homo sapiens, UniProt P46531); assay: Direct binding of β2 ECD and Notch1 ECD fragment EGF 10-21; conditions: α-FLAG immunoblot
T3 construct: purified fragments of the Notch1 ECD, containing either EGF repeats 10-21 or 22-33; FLAG (C)
T3 sequence (P46531 372-827 limits assumed): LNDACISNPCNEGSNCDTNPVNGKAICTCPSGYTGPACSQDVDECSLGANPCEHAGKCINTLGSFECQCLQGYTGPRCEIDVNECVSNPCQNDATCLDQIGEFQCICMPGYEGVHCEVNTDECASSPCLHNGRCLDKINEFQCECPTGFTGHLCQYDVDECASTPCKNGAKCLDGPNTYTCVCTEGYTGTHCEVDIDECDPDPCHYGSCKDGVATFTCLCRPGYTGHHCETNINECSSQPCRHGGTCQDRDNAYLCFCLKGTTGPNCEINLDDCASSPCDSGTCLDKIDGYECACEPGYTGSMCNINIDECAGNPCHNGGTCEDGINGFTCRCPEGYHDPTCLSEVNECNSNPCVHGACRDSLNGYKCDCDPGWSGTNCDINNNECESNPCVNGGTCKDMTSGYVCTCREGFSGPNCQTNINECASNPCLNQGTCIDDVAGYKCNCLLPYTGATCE

[9] = system: naïve CHO cells, MDCK cells, HUVEC (endothelial), or tumor cell lines NCI-H226, SW620, SW480, and PC-3; assay: β2 ECD induced phenotype assay (actin cytoskeleton, morphology); type: cell-based; conditions: conditioned media containing β2 ECD, 48-72 hours
Experimental: as §1

## C[C@H](NC(=O)Cc1cc(F)cc(F)c1)C(=O)NC(C(=O)OC(C)(C)C)c1ccccc1 (stereo partly drawn) [DAPT, N—[N-(3,5-difluorophenylacetyl-L-alanine)]-S-phenylglycine t-butylester]
SW620 cells [1]; DAPT 500 nM in DMSO, SW620 cells treated with β2 ECD in conditioned media
  E-cadherin staining: remained E-cadherin positive
SW620 cells [1]; DAPT-treated vs DMSO, β2-ECD treated cells, p=0.00001
  E-cadherin levels, quantitative analysis of staining: significantly different

## Jagged1: Notch ligand of the Jagged family, added exogenously (co-culture or plate-bound)
SW620 cells [2]
  Induction of EMT or related morphological change: no evidence of induction of EMT or related morphological change

B1: β2 ECD: C-terminal polyhistidine-tagged (HIS8) extracellular domain of β2 (SCN2B) secreted from CHO cells, used in conditioned media (protein)
chain: MEVTVPATLNVLNGSDARLPCTFNSCYTVNHKQFSLNWTYQECNNCSEEMFLQFRMKIINLKLERFQDRVEFSGNPSKYDVSVMLRNVQPEDEGIYNCYIMNPPDRHRGHGKIHLQVLMEEPPERDSTVAHHHHHHHH
[3]; 6 hours after treatment with β2 ECD, oscillating at subsequent timepoints
  Twist1 transcript expression: induction of Twist1 transcript
[3]; at 6 hours after β2 ECD in conditioned media
  HES1 transcript expression: elevated HES1 transcript
SW620 cells [4]; β2 ECD in conditioned media for 48 hours
  E-cadherin protein levels (immunofluoresence and FACS): greatly reduced E-cadherin protein levels
SW620 cells [4]; β2 ECD in conditioned media, from otherwise undetectable levels
  Vimentin protein expression (immunofluorescent staining): substantial increase in vimentin protein expression
SW620 cells [5]
  Migration of SW620 cells across transwell membrane: significant increase in migration
Notch1 NICD
  Nuclear Notch1 NICD staining: nuclear NICD was detected
[6]
  Binding to FLAG-tagged Notch1 ECD (repeats 6-36): recovery of tagged Notch1
CHO cells
  Cell death as percentage of total cells: 10%
HEK293 cells
  Phenotypic change in response to β2: no phenotypic change
[7]
  Binding to Notch1 ECD fragment EGF repeats 22-33: no detectable binding
[8]
  Binding to Notch1 ECD fragment EGF repeats 10-21: specifically bound
[9]
  Phenotypic changes (elongation, enlargement, actin cytoskeleton remodeling): capable of inducing phenotypic changes
